Results published in the supplement of paper PMC7125110.
± gives the standard error. Variants at the floor of the assay were thinned out.

B1: glmS ribozyme (parent)
chain: AUAAAAGCGCCAGAACUACAGAAAUGUAGUUGACGAGGAGGAGGUUUAUCGAAUUUUCGGCGGAUGCCUCCAAA

Tests used:
Details in all cases: with glucosamine-6-phosphate
[1] = variants of: B1; test: self-cleavage kobs at 40 uM GlcN6P; higher = faster cleavage; RNA array
In short: (§1)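 A hybridised Cy3 probe tracked barcoded ribozyme variants, transcribed in situ by E. coli RNA polymerase on sequenced MiSeq chips, at 37 °C. The variants received 40 μM to 10 mM glucosamine-6-phosphate in HEPES/KCl/Mg(OAc)2 buffer. kobs came from decay fits and kcat and KM from weighted Michaelis–Menten fits.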

[2] = variants of: B1; test: self-cleavage kobs at 10000 uM GlcN6P; higher = faster cleavage; RNA array
In short: as §1

[3] = variants of: B1; test: self-cleavage kobs at 160 uM GlcN6P; higher = faster cleavage; RNA array
In short: as §1

[4] = variants of: B1; test: self-cleavage kobs at 640 uM GlcN6P; higher = faster cleavage; RNA array
In short: as §1

[5] = variants of: B1; test: self-cleavage kobs at 2500 uM GlcN6P; higher = faster cleavage; RNA array
In short: as §1

Variant	self-cleavage kobs at 40 uM GlcN6P [1]	self-cleavage kobs at 10000 uM GlcN6P [2]	self-cleavage kobs at 160 uM GlcN6P [3]	self-cleavage kobs at 640 uM GlcN6P [4]	self-cleavage kobs at 2500 uM GlcN6P [5]
G29A C34A G40U G41C G44U U49G C50A C71U	< 1e-05 s⁻¹	< 1e-05 s⁻¹			
A14G U54A	0.00167 ± 0.00022 s⁻¹	0.103 ± 0.048 s⁻¹	0.00342 ± 0.0007 s⁻¹	0.027 ± 0.0081 s⁻¹	0.0173 ± 0.0047 s⁻¹
U30A A53C G60U	< 1e-05 s⁻¹		< 1e-05 s⁻¹	< 1e-05 s⁻¹	< 1e-05 s⁻¹
A14G U31C G41C G63A	< 1e-05 s⁻¹	< 1e-05 s⁻¹			
A14C U55A U56G	0.002 ± 0.00048 s⁻¹			0.0195 ± 0.0041 s⁻¹	0.0295 ± 0.013 s⁻¹
U31C G60U	< 1e-05 s⁻¹	< 1e-05 s⁻¹	< 1e-05 s⁻¹		
U30G C70U	0.000299 ± 3.2e-05 s⁻¹	0.00516 ± 0.00081 s⁻¹	0.000471 ± 8.6e-05 s⁻¹	0.00108 ± 0.00014 s⁻¹	0.00367 ± 0.00096 s⁻¹
A14C G29U C50G	0.000119 ± 3.7e-05 s⁻¹				
A14C C68U C71U	< 1e-05 s⁻¹				
G29C U30C	< 1e-05 s⁻¹			< 1e-05 s⁻¹	
G13C U49G G60U C70G	< 1e-05 s⁻¹				
G29U A42G G43A	< 1e-05 s⁻¹				
C16G G43C	< 1e-05 s⁻¹	< 1e-05 s⁻¹		< 1e-05 s⁻¹	
U30G U56G C58U U69C	< 1e-05 s⁻¹				
A15C G29A G60A	< 1e-05 s⁻¹				
A14G G21U C67U	0.000937 ± 0.00021 s⁻¹				
U31G U69A	2.79e-05 ± 1.1e-05 s⁻¹	0.000103 ± 1.4e-05 s⁻¹	9.26e-05 ± 3.7e-05 s⁻¹	0.00012 ± 3.2e-05 s⁻¹	0.000288 ± 7.4e-05 s⁻¹
A15C C34A G37U G41A	< 1e-05 s⁻¹	< 1e-05 s⁻¹			
A14C A53U U69C	5.39e-05 ± 1.6e-05 s⁻¹				
A14G G35U G37U G44U C71U	< 1e-05 s⁻¹				< 1e-05 s⁻¹
A15U G38U U55C	< 1e-05 s⁻¹				
U30G U45A C71U	0.000183 ± 4.7e-05 s⁻¹	0.00282 ± 0.0011 s⁻¹			
A14U G62C	< 1e-05 s⁻¹				< 1e-05 s⁻¹
U30C C50G U69A	0.000101 ± 1.6e-05 s⁻¹	0.000171 ± 2.6e-05 s⁻¹			
A15U G43U U54C G60C C70G	< 1e-05 s⁻¹	< 1e-05 s⁻¹			
C16A G44C	< 1e-05 s⁻¹	< 1e-05 s⁻¹	< 1e-05 s⁻¹	< 1e-05 s⁻¹	
G13C C61A C71U	< 1e-05 s⁻¹				
U31C G35U A39C G44U U55A	< 1e-05 s⁻¹	< 1e-05 s⁻¹	< 1e-05 s⁻¹	< 1e-05 s⁻¹	< 1e-05 s⁻¹
